Test results as given in patent publication US20180127513A1 (Bristol-Myers Squibb, published 2018).
Changes are numbered by the printed parent chain. In names and notes the source's numbering stands.

B1: 11F11 (antibody, human IgG2, kappa, V domains shown)
VH: QVQLVESGGGVVQPGRSLRLSCATSGFTFSNYGMHWVRQAPGKGLEWVAVILYDGSNKYYPDSVKGRFTISRDNSKNTLYLQMNSLRAEDTAVYYCARGGSSWYPDSFDIWGQGTMVTVSS
VL: DIQMTQSPSSLSASVGDRVTITCRASQGISSWLAWYQQKPEKAPKSLIYAASSLQSGVPSRFSGSGSGTDFTLTISSLQPEDFATYYCQQYNSYPLTFGGGTKVEIKR
notes: IgG2; also called 11F11-2
B2: 7A11 (antibody, human IgG1, kappa, V domains shown)
VH: EVQLVESGGGLVQTGRSLRLSCAASGFTFDDYAMHWVRQAPGKGLEWVSDISWNSDIIGYADSVKGRFTISRDNAKNSLYLQMNSLRAEDTALYYCAKDIYGSGSSFFDYWGQGILVTVSS
VL: B1 VL with G28Y, N92H, L96P, G100Q, K103R, V104L
B3: 4D4 (antibody, human IgG2, kappa)
heavy: QVQLVESGGGVVQPGRSLRLSCAASGFTFSNYGMHWVRQAPGKGLEWVAVIWYDESNKYYADSVKGRFTISRDNSKNTLFLQMNSLRAEDTAVYYCARGYNSRWYPDAFDIWGQGTMVTVSSASTKGPSVFPLAPCSRSTSESTAALGCLVKDYFPEPVTVSWNSGALTSGVHTFPAVLQSSGLYSLSSVVTVPSSNFGTQTYTCNVDHKPSNTKVDKTVERKCCVECPPCPAPPVAGPSVFLFPPKPKDTLMISRTPEVTCVVVDVSHEDPEVQFNWYVDGVEVHNAKTKPREEQFNSTFRVVSVLTVVHQDWLNGKEYKCKVSNKGLPAPIEKTISKTKGQPREPQVYTLPPSREEMTKNQVSLTCLVKGFYPSDIAVEWESNGQPENNYKTTPPMLDSDGSFFLYSKLTVDKSRWQQGNVFSCSVMHEALHNHYTQKSLSLSPGK
light: not shown
notes: IgG2; also called 4D4-1
B4: 10D2 (antibody, human IgG4, kappa, V domains shown)
VH: B1 VH with T24A, M34L, L52R, P61A, N84S, S107G, F108L, I110V, M116T
VL: B1 VL
B5: 24H2 (antibody, human IgG4, kappa, V domains shown)
VH: B1 VH with T24A, L52W, S56G, P61A, Y80F, S107A
VL: B1 VL
B6: CD73.4-IgG2-C219S-IgG1.1f (antibody)
heavy: QVQLVESGGGVVQPGRSLRLSCAASGFTFSNYGMHWVRQAPGKGLEWVAVILYDGSNKYYPDSVKGRFTISRDNSKNTLYLQMNSLRAEDTAVYYCARGGSSWYPDSFDIWGQGTMVTVSSASTKGPSVFPLAPCSRSTSESTAALGCLVKDYFPEPVTVSWNSGALTSGVHTFPAVLQSSGLYSLSSVVTVPSSNFGTQTYTCNVDHKPSNTKVDKTVERKSCVECPPCPAPPVAGPSVFLFPPKPKDTLMISRTPEVTCVVVDVSHEDPEVKFNWYVDGVEVHNAKTKPREEQYNSTYRVVSVLTVLHQDWLNGKEYKCKVSNKALPSSIEKTISKAKGQPREPQVYTLPPSREEMTKNQVSLTCLVKGFYPSDIAVEWESNGQPENNYKTTPPVLDSDGSFFLYSKLTVDKSRWQQGNVFSCSVMHEALHNHYTQKSLSLSPG
light: not shown
modifications: N-terminal Gln 94% pyro-Q; 97% of heavy chains lack the C-terminal Lys
B7: CD73.10-IgG2-C219S-IgG1.1f (antibody)
heavy: B6 heavy with L52W, G55E
light: not shown
B8: CD73.10-IgG2-C219S (antibody)
heavy: QVQLVESGGGVVQPGRSLRLSCAASGFTFSNYGMHWVRQAPGKGLEWVAVIWYDESNKYYPDSVKGRFTISRDNSKNTLYLQMNSLRAEDTAVYYCARGGSSWYPDSFDIWGQGTMVTVSSASTKGPSVFPLAPCSRSTSESTAALGCLVKDYFPEPVTVSWNSGALTSGVHTFPAVLQSSGLYSLSSVVTVPSSNFGTQTYTCNVDHKPSNTKVDKTVERKSCVECPPCPAPPVAGPSVFLFPPKPKDTLMISRTPEVTCVVVDVSHEDPEVQFNWYVDGVEVHNAKTKPREEQFNSTFRVVSVLTVVHQDWLNGKEYKCKVSNKGLPAPIEKTISKTKGQPREPQVYTLPPSREEMTKNQVSLTCLVKGFYPSDIAVEWESNGQPENNYKTTPPMLDSDGSFFLYSKLTVDKSRWQQGNVFSCSVMHEALHNHYTQKSLSLSPG
light: not shown
notes: also called CD73.10-IgG2CS; CD73.10-IgG2S
B9: 4C3 (antibody, human IgG1, kappa, V domains shown)
VH: EVQLVESGGGLVQPGRSLRLSCAASGFTFDDYAMHWVRQAPGKGLEWVSGISWKSGSIGYADSVKGRFTISRDNAKNSLYLQMNSLRAEDTALYYCVKGYYVILTGLDYWGQGTLVTVSS
VL: not shown
notes: IgG1za; also called 4C3-1
B10: CD73.4-IgG2-C219S (antibody)
heavy: B8 heavy with W52L, E55G
light: not shown
notes: also called CD73.4-IgG2CS; CD73.4-IgG2.3; copies: 2 + 2
B11: CD73.11-IgG2-C219S (antibody)
heavy: QVQLVESGGGVVQPGRSLRLSCAASGFTFSNYGMHWVRQAPGKGLEWVAVIWYDESNKYYADSVKGRFTISRDNSKNTLFLQMNSLRAEDTAVYYCARGYNSRWYPDAFDIWGQGTMVTVSSASTKGPSVFPLAPCSRSTSESTAALGCLVKDYFPEPVTVSWNSGALTSGVHTFPAVLQSSGLYSLSSVVTVPSSNFGTQTYTCNVDHKPSNTKVDKTVERKSCVECPPCPAPPVAGPSVFLFPPKPKDTLMISRTPEVTCVVVDVSHEDPEVQFNWYVDGVEVHNAKTKPREEQFNSTFRVVSVLTVVHQDWLNGKEYKCKVSNKGLPAPIEKTISKTKGQPREPQVYTLPPSREEMTKNQVSLTCLVKGFYPSDIAVEWESNGQPENNYKTTPPMLDSDGSFFLYSKLTVDKSRWQQGNVFSCSVMHEALHNHYTQKSLSLSPG
light: not shown
notes: also called CD73.11-IgG2CS
B12: 11A6 (antibody, human IgG1, kappa, V domains shown)
VH: B9 VH with G10N, K54N, S55N, G56N, S57D, T69I, A88P, L115P
VL: B1 VL
B13: 5F8 (antibody, human IgG1, kappa, V domains shown)
VH: EVQLVESGGGLVQPGGSLRLSCAASGFTFSSYWMHWVRQAPGKGLVWVSRIISDGSSTGYADSVKGRFTISRDNAKNTLYLQMNSLRAEDTAVYYCAREFSSGWYFDYWGQGTLVTVSS
VL: AIQLTQSPSSLSASVGDRVTITCRASQGISSALAWYQQKPGKAPKLLIYDASSLESGVPSRFSGSGSGTDFTLTISSLQPEDFATYYCQQFSSYPRTFGQGTKVEIKR

Target: T1, human CD73 on cells (human, UniProt P21589 27-549)
T1 sequence: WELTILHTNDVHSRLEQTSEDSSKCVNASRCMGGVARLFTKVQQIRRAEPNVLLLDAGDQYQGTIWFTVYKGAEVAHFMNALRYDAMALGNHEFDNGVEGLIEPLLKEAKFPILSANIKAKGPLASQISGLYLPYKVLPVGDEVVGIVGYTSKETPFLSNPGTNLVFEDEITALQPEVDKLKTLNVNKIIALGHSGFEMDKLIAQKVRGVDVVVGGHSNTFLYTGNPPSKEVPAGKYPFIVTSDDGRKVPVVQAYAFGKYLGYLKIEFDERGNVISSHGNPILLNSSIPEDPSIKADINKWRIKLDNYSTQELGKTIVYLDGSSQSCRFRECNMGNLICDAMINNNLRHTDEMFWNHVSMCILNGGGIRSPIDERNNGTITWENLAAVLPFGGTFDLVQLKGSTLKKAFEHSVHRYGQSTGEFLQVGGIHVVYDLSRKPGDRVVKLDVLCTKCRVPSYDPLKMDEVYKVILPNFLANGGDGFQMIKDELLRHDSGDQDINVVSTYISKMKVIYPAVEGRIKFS
Assay: cell-based or functional assay

Row | Binder | Ymax, CD73 internalization (100 nM 11F11 set to 100%)
1 | B1 | 98%
2 | B2 | 50%
3 | B3 | 104%
4 | B4 | 29%
5 | B5 | 51%
6 | B6 | 97%
7 | B7 | 99%
8 | B8 | 99%

Target: T2, N-hCD73-his (human, UniProt P21589 26-336)
T2 construct: also called hCD73(26-336)His; CD73(26-336)His; not shown: His tag
T2 sequence: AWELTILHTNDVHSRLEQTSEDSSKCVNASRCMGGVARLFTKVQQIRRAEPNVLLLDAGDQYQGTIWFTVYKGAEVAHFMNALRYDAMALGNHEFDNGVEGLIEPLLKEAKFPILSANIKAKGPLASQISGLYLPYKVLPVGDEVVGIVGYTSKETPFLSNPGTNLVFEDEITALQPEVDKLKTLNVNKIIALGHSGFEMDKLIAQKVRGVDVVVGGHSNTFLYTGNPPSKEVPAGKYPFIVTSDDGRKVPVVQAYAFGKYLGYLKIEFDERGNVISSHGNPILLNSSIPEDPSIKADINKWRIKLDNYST
Assay: SPR
Text: One experimental format tested the binding of the N-terminal domain of hCD73 (consisting of residues 26-336 of human CD73; termed N-hCD73) to antibodies that were captured on immobilized protein A surfaces. For these experiments, protein A (Pierce) was immobilized to a density of 3000-4000 RU on flow cells 1-4 of a CM5 sensor chip (GE Healthcare) using standard ethyl(dimethylaminopropyl) carbodiimide (EDC)/N-hydroxysuccinimide (NHS) chemistry, with ethanolamine blocking, in a running buffer of 0.01 M HEPES pH 7.4, 0.15 M NaCl, 3 mM EDTA, 0.005% v/v tween 20. […] The running buffer for the kinetic experiments was 10 mM sodium phosphate, 130 mM sodium chloride, 0.05% tween 20, pH 7.1. The surfaces were regenerated after each cycle using two 30 s pulses of 10 mM glycine pH 1.5 at a flow rate of 30 μl/min. Sensogram data was double-referenced and then fitted to a 1:1 Langmuir model using Biacore T100 evaluation software v2.0.4, to determine the association rate constant (ka), the dissociation rate constant (kd), and the equilibrium dissociation constant (KD).

Row | Binder | Kd
9 | B9 | 100 to 200 nM
10 | B1 | 1.1 nM
11 | B3 | ~5 nM
12 | B10 | 1.1 nM
13 | B8 | ~5 nM
14 | B11 | ~5 nM

Target: T1, human CD73 on cells
Assay: cell-based or functional assay
Remark: another data set of the same source

Row | Binder | Ymax, cAMP HTRF assay (100 nM 11F11 set to 100%)
15 | B12 | 84%
16 | B13 | 80%
17 | B9 | 80%
18 | B1 | 76%
19 | B2 | 45%
